In patent publication US8247194 (Amgen, dated 2012):
Numbering of substitutions follows the chain as printed.

B1: half-human SCA C33oN-32 (scFv)
scFv: ELQLVEQSGAALVKPGDSVKMSCKASGYPFTDYIVHWVKQSHGKSLDWIGYINPYSGDTKFNEKFKSKATLTVDKSSSTAYMEFSRLTSEDSAIYYCARSGLIAVYFDYWGQGTTVTVSSGGGGSGGGGSGGGGSELVLTQSPEFQSVAPKEKVTITCRASQSIGSSLHWYQQKPDQSPKLLIKFASQSFSGVPSRFGGSGSGTNFTLTINSLEAEDAATYYCQQSSTLPPTFGQGTKLEIKTGDYKDDDDKHHHHHH
B2: half-human SCA B32oN-33 (scFv)
scFv: ELQLVEQSGAALVKPGDSVKMSCKASGYPFTDYIVHWVKQSHGKSLDWIGYINPYSGDTKFNEKFKSKATLTVDKSSSTAYMEFSRLTSEDSAIYYCARSGLIAVYFDYWGQGTTVTVSSGGGGSGGGGSGGGGSELVMTQSPATLSLSPGERATLSCRASQSVRTYLAWYQQKPGQAPRLLIYAASHRATGIPARFSGSGSGTDFTLTISRLEPEDFAVYYCQQYGSSPPTFGQGTKVEIKTGDYKDDDDKHHHHHH
notes: Expressed from pComb3H5BFlag/His
B3: half-human SCA C32oN-89 (scFv)
scFv: ELQLVEQSGAALVKPGDSVKMSCKASGYPFTDYIVHWVKQSHGKSLDWIGYINPYSGDTKFNEKFKSKATLTVDKSSSTAYMEFSRLTSEDSAIYYCARSGLIAVYFDYWGQGTTVTVSSGGGGSGGGGSGGGGSELVLTQSPSSLSASVGDRVTITCRASQSISRYLNWYQQKPGKPPKLLIFVASNLQTGVPSRFSGSGSGTDFTLTISSLEPEDFAVYYCQQRSNWPLTFGGGTKVDIKTGDYKDDDDKHHHHHH
notes: as for B2
B4: half-human SCA B33oN-22 (scFv)
scFv: B1 scFv with E144D, A149T, G198S, N205D, S227Y, T228S, L229T, L239V
notes: as for B2
B5: half-human SCA B32oN-67 (scFv)
scFv: ELQLVEQSGAALVKPGDSVKMSCKASGYPFTDYIVHWVKQSHGKSLDWIGYINPYSGDTKFNEKFKSKATLTVDKSSSTAYMEFSRLTSEDSAIYYCARSGLIAVYFDYWGQGTTVTVSSGGGGSGGGGSGGGGSELVLTQSPGFQSVTPKEKVTITCRASQSIGSSLHWYQQKPDQSPKLLIKFASQSISGVPSRFTGSGSGTDFTLTISSLQPEDIATYYCQQSYSTPWTFGQGTKLEIKTGDYKDDDDKHHHHHH
notes: as for B2
B6: half-human SCA B33oN-8 (scFv)
scFv: B5 scFv with H169N, S178P, P194S, T198S, S200T, I218V, W231P
notes: as for B2
B7: half-human SCA C32oN-34 (scFv)
scFv: ELQLVEQSGAALVKPGDSVKMSCKASGYPFTDYIVHWVKQSHGKSLDWIGYINPYSGDTKFNEKFKSKATLTVDKSSSTAYMEFSRLTSEDSAIYYCARSGLIAVYFDYWGQGTTVTVSSGGGGSGGGGSGGGGSELVLTQSPDFQSVTPKERVTITCRASQTIGNNLHWYQQKPGQSPKLLIKFASQSFSGVPSRFSGSGSGTDFTLTINSLEAEDAATYYCQQSYSTPWTFGQGTKVEIKTGDYKDDDDKHHHHHH
notes: as for B2
B8: half-human SCA B32oN-48 (scFv)
scFv: B1 scFv with E144G, A149T, S178P, F190I, G198S, L239V
notes: as for B2
B9: half-human SCA B33oN-69 (scFv)
scFv: B1 scFv with E144D, A149T, S166T, S167G, G198S, N205D, S212G
notes: as for B2
B10: half-human SCA B33oN-115 (scFv)
scFv: B5 scFv with G144D, I190L, T198S, I218F, W231S, Q235P, L239V
notes: as for B2
B11: half-human SCA C32oN-92 (scFv)
scFv: B1 scFv with E144D, A149T, F190L, G198S, N205D, T207A
notes: as for B2
B12: half-human SCA C33oN-49 (scFv)
scFv: B7 scFv with R153K, T163S, N166S, N167S, G176D, V239L
notes: as for B2
B13: half-human SCA B33oN-21 (scFv)
scFv: B7 scFv with R153K, T163S, N166S, N167S, G176D, F190L, V239L
notes: as for B2
B14: half-human SCA B32oN-49 (scFv)
scFv: B5 scFv with G144D, I190L, T198S, I218F, S228T, W231P, Q235G, L239V
notes: as for B2
B15: half-human SCA C32oN-46 (scFv)
scFv: B5 scFv with G144D, I190L, T198S, I218F, W231P, L239V
notes: as for B2
B16: half-human SCA C32oN-10 (scFv)
scFv: B7 scFv with R153K, T163S, N166S, N167S, G176D, F190L, A218F, W231S, Q235P
notes: as for B2
B17: half-human SCA C32oN-21 (scFv)
scFv: B1 scFv with E144G, A149T, F190I, G198S, S200T, N205D
notes: as for B2
B18: half-human SCA B32oN-44 (scFv)
scFv: ELQLVEQSGAALVKPGDSVKMSCKASGYPFTDYIVHWVKQSHGKSLDWIGYINPYSGDTKFNEKFKSKATLTVDKSSSTAYMEFSRLTSEDSAIYYCARSGLIAVYFDYWGQGTTVTVSSGGGGSGGGGSGGGGSELVLTQSPDFQSVTPKEKVTITCRASQSIGSSLHWYQQKPDQPPKLLIKFASQSISRVPSRFSGTGSGTDFTLTINSLEAEDAATYYCQQSFSFPYTFGQGTKLEIKTGDYKDDDDKHHHHHH
notes: as for B2
B19: half-human SCA B32oN-73 (scFv)
scFv: B5 scFv with T198S, S200T
notes: as for B2
B20: half-human SCA B33oN-66 (scFv)
scFv: B7 scFv with R153K, T163S, N166S, G176D, T207S, W231P, K238R, V239L
notes: as for B2
B21: half-human SCA B32oN-10 (scFv)
scFv: ELQLVEQSGAALVKPGDSVKMSCKASGYPFTDYIVHWVKQSHGKSLDWIGYINPYSGDTKFNEKFKSKATLTVDKSSSTAYMEFSRLTSEDSAIYYCARSGLIAVYFDYWGQGTTVTVSSGGGGSGGGGSGGGGSELQMTQSPSSLSASVGDRVTITCRTSQTISSLLNWYQQKPGKAPKLLIYAASNLQSGVPSRFSGSGSGTDFTLTISGLQPEDFSTYFCQQSYSFPRTFGQGTKVDIKTGDYKDDDDKHHHHHH
notes: as for B2
B22: half-human SCA B33oN-35 (scFv)
scFv: ELQLVEQSGAALVKPGDSVKMSCKASGYPFTDYIVHWVKQSHGKSLDWIGYINPYSGDTKFNEKFKSKATLTVDKSSSTAYMEFSRLTSEDSAIYYCARSGLIAVYFDYWGQGTTVTVSSGGGGSGGGGSGGGGSELQMTQSPSSLSASVGDRVTITCRASQSIGSSLHWYQQKPDQSPKLLIKFASQSFSGVPSRFGGSGSGTNFTLTINSLEAEDAATYYCQQSSTLPPTFGQGTKLEIKTGDYKDDDDKHHHHHH
notes: as for B2

What follows are binders tested against T1, recombinant human GM-CSF (rhGM-CSF), produced in E. coli (human, UniProt P04141 18-144) (assay: cell-based or functional assay).
T1 sequence (P04141 18-144 limits assumed): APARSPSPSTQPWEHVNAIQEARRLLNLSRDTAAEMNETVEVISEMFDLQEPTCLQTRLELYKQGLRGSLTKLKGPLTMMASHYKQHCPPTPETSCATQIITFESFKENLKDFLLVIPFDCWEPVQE
In the case of B1, the “IC50 (read off the curve), TF-1 proliferation, C33ON-32 dimer” value is reported as about 0.1 µg/mL and the “IC50 (read off the curve), TF-1 proliferation, C33ON-32 mono” value is reported as about 0.2 µg/mL.

What follows are binders tested against T1, recombinant human GM-CSF (rhGM-CSF), … (assay: SPR off-rate ranking, purified periplasmic preparation over immobilized rhGM-CSF; clone listed among the sequenced hits in the 2nd table).
Description: FIG. 9: Binding analysis (kinetic off rate) of SCA hits derived from the method of the invention, as determined by SPR. Binding kinetics of the SCA hits were measured injecting 10 µL of purified periplasmic preparation ("PPP") protein solution with a flow rate of 5 µL/min at 25° C. onto the sensor chip. The data were monitored in all four flow cells. Background association with the unmodified CM5 chip surface (FC1) was substracted from the binding to the immobilised rhGM-CSF (FC2) allowing analysis of the specific binding signal (FC2-FC1 response difference). The dissociation rate was monitored for 100 sec (FIG. 4). The amplitude of the binding peak (RUmax) directly correlates to the protein concentration in the injected sample. The kinetic association rate constant (ka) is concentration dependent and can—due to varying concentrations of the PPP protein solution—not be used for the qualitative ranking of the purified PPP SCA material. The kinetic dissociation rate constant (kd) is protein concentration independent and characteristic for the binding strength of the respective SCA hit. The SCA hits with the best apparent off rate were identified.
B2: binds.
B3: binds.
B4: binds.
B5: binds.
B6: binds.
B7: binds.
B8: binds.
B9: binds.
B10: binds.
B11: binds.
B12: binds.
B13: binds.
B14: binds.
B15: binds.
B16: binds.
B17: binds.
B18: binds.
B19: binds.
B20: binds.
B21: binds.
B22: binds.
